Like-named read-outs stand apart in the source and are kept apart here.
Tests used:
NHR-23;NHR-85 [1] = target: T1, NHR-23;NHR-85 (Caenorhabditis elegans;Caenorhabditis …, UniProt P41828;Q9XUK7 1-588;1-514, |); experiment: EMSA
T1 sequence 1: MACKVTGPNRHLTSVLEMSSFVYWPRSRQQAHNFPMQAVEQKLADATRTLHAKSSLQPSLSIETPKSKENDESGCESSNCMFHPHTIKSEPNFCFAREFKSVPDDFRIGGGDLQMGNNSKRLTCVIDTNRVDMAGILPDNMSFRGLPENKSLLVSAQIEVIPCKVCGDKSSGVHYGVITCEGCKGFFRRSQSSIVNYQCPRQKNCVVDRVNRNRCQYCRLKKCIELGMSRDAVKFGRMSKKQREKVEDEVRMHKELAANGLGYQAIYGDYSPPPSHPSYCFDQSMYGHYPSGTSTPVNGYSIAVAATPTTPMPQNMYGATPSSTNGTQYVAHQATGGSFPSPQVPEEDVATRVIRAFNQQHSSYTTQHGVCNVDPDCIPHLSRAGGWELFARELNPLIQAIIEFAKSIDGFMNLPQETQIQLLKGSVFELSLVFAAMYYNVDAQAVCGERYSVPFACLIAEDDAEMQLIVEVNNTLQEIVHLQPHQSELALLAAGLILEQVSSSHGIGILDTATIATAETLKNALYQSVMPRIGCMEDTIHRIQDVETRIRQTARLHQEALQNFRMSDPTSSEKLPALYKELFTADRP
T1 sequence 2: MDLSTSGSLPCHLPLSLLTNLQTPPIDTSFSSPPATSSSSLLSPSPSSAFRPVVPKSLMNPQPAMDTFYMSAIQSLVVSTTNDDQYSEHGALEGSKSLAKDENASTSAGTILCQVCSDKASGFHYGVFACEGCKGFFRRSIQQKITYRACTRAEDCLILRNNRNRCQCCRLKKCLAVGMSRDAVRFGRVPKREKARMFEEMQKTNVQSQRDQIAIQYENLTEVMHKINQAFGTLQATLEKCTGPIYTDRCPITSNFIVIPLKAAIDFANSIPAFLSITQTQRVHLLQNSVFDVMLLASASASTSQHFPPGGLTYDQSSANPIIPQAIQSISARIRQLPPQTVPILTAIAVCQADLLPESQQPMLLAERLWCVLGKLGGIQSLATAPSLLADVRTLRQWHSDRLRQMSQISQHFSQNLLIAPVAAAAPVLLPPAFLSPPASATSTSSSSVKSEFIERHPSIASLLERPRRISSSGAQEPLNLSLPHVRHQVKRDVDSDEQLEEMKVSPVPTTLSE

NHR-23;NHR-85 [2] = target: T1, NHR-23;NHR-85; experiment: EMSA; remark: listed apart in the source
[3] = target: T2, NHR-23 (recombinant, Strep-SUMO tag cleaved) (C. elegans, UniProt P41828 1-588); experiment: MST
T2 sequence (looked up): T1 sequence 1

NHR-23;NHR-85 [4] = target: T1, NHR-23;NHR-85; experiment: EMSA; remark: listed apart in the source

B1: Proximal (25 bp) (dsDNA)
DNA 1: CGAAGCGACCGAATGACCCAGTCTC
DNA 2: GAGACTGGGTCATTCGGTCGCTTCG
- binding result (NHR-23;NHR-85 [1]): binds

B2: Mut_DR1 (dsDNA)
DNA 1: ACAAATTGACCTGTGTCGGTCAGTA
DNA 2: ACTGACCGACACAGGTCAATTTGT
- binding result (NHR-23;NHR-85 [2]): no binding

B3: Strep2-NHR-85 (natural protein, C. elegans, UniProt Q9XUK7 1-514, looked up)
chain: T1 sequence 2
modifications: AlexaFluor647 NHS Ester label (in the microscale thermophoresis assay only)
- Kd [3]: 5.8 nM

B4: wtLIN-4_23_85 (PCE direct repeat, 25 bp) (dsDNA)
DNA 1: ACAAATTGAGGTCAGTCGGTCAGTA
DNA 2: TACTGACCGACTGACCTCAATTTGT
- binding result (NHR-23;NHR-85 [4]): binds

B5: Mut_DR2 (dsDNA)
DNA 1: ACAAATTGAGGTCAGTCCCTGTCTA
DNA 2: TAGACAGGGACTGACCTCAATTTGT
- binding result (NHR-23;NHR-85 [2]): no binding

— publication PMC10840721 (Developmental cell, 2022)
